Experimental data published in patent US20080058263A1 (published 2008).
Residue numbers refer to the chain shown, from its start.

T1: VEGFR-3-Fc (UniProt P35916 25-328)
T1 construct: domain: first three Ig domains; conditioned supernatant of 293T cells; also called VEGFR-3-Fc fusion protein; not shown: Fc fragment of the pIg vector
T1 sequence (looked up): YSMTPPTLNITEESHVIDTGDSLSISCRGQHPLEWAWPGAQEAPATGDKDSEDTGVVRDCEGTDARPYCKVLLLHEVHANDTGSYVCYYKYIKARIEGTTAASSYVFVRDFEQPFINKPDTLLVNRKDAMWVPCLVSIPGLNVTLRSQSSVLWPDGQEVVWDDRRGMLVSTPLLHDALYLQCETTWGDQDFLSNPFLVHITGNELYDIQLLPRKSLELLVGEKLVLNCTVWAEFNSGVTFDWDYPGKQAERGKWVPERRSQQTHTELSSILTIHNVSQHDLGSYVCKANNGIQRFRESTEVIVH

B1: 22-14 (ligand)
chain: AHYNTEILKSIDNEWRKTQCMPREVCIDVGKEFGVATNTFFKPPCVSVYRCGGCCNDEGLECMNTSTSYLSKTLFEITVPLSQGPKPVTISFANHTSCRCMSKLD
B2: 23-14 (ligand)
chain: B1 chain with F33Y, G34P, V35D, A36E, T37I, N38E, T39Y, F40I
B3: 22-10 (ligand)
chain: B1 chain with A93L, N94Q, T96N, S97K, R99E, M101R, S102P, L104K
B4: 73-16 (ligand)
chain: GQNHHEVVKSIDNEWRKTQCMPREVCIDVGKEYPDEIEYIFKPPCVSVYRCGGCCNSEGLQCMNTSTSYLSKTLFEITVPLSQGPKPVTISFANHTSCRCMSKLD
B5: 53-16 (ligand)
chain: AHYNTEILKSIDNEWRKTQCMPIETLVDIFQEYPDEIEYIFKPPCVSVYRCGGCCNSEGLQCMNTSTSYLSKTLFEITVPLSQGPKPVTISFANHTSCRCMSKLD
B6: 21-16 (ligand)
chain: AHYNTEILKSIDNEWRKTQCMPREVCIDVGKEYPDEIEYIFKPSCVPLMRCGGCCNSEGLQCMNTSTSYLSKTLFEITVPLSQGPKPVTISFANHTSCRCMSKLD
B7: 23-12 (ligand)
chain: AHYNTEILKSIDNEWRKTQCMPREVCIDVGKEYPDEIEYIFKPPCVSVYRCGGCCNSEGLQCMNTSTSYLSKTLFEITVPLSQGPKPVTISFLQHNKCECRPKKD
B8: 21-14 (ligand)
chain: B6 chain with S57D, Q61E
B9: 52-14 (ligand)
chain: B1 chain with R23I, V25T, C26L, I27V, V29I, G30F, K31Q
B10: 52-16 (ligand)
chain: B5 chain with Y33F, P34G, D35V, E36A, I37T, E38N, Y39T, I40F
B11: 73-14 (ligand)
chain: B4 chain with S57D, Q61E
B12: 24-16 (ligand)
chain: B1 chain with P44S, S47P, V48L, Y49M, D57S, E61Q
B13: 24-14 (ligand)
chain: B1 chain with P44S, S47P, V48L, Y49M
B14: 21-10 (ligand)
chain: B7 chain with P44S, S47P, V48L, Y49M, S57D, Q61E
B15: 23-10 (ligand)
chain: B7 chain with S57D, Q61E
notes: clone entry
B16: 51-14 (ligand)
chain: B5 chain with P44S, S47P, V48L, Y49M, S57D, Q61E
B17: 23-16 (ligand)
chain: B6 chain with S44P, P47S, L48V, M49Y
B18: 24-10 (ligand)
chain: AHYNTEILKSIDNEWRKTQCMPREVCIDVGKEFGVATNTFFKPSCVPLMRCGGCCNDEGLECMNTSTSYLSKTLFEITVPLSQGPKPVTISFLQHNKCECRPKKD
B19: 72-16 (ligand)
chain: B4 chain with Y33F, P34G, D35V, E36A, I37T, E38N, Y39T, I40F
B20: 22-12 (ligand)
chain: B18 chain with S44P, P47S, L48V, M49Y, D57S, E61Q
B21: 74-14 (ligand)
chain: GQNHHEVVKSIDNEWRKTQCMPREVCIDVGKEFGVATNTFFKPSCVPLMRCGGCCNDEGLECMNTSTSYLSKTLFEITVPLSQGPKPVTISFANHTSCRCMSKLD
B22: 71-14 (ligand)
chain: B4 chain with P44S, S47P, V48L, Y49M, S57D, Q61E
B23: 53-14 (ligand)
chain: B5 chain with S57D, Q61E
B24: 72-14 (ligand)
chain: B21 chain with S44P, P47S, L48V, M49Y
B25: 22-2 (ligand)
chain: AHYNTEILKSIDNEWRKTQCMPREVCIDVGKEFGVATNTFFKPPCVSVYRCGGCCNDEGLECMNTSTSYLSKTLFEIKPHQGQHIGEMSFLQHNKCECRPKKD
B26: 33-1 (ligand)
chain: GQNHHEVVKSIDNEWRKTQCMPIETLVDIFQEYPDEIEYIFKPPCVSVYRCGGCCNDEGLECVPTEESNITMQIMRIKPHQGQHIGEMSFLQHNKCECRPKKD
B27: 33-3 (ligand)
chain: B26 chain with D57S, E61Q
B28: 73-9 (ligand)
chain: GQNHHEVVKSIDNEWRKTQCMPREVCIDVGKEYPDEIEYIFKPPCVSVYRCGGCCNDEGLECVPTEESNITMQIMRITVPLSQGPKPVTISFLQHNKCECRPKKD

Target: T2, VEGFR-1-Fc (UniProt P17948 27-338)
T2 construct: domain: first three Ig domains; expressed in Drosophila S2 cells, purified on Protein A sepharose; also called VEGFR-1-Fc fusion protein; not shown: Fc fragment from the Signal-pIgPlus vector
Assay: receptor-Fc IP
Protocol: (§1) The binding assay procedure was identical to the immunoprecipitation using pentahistidine antibody described in Example 2, apart from the composition of the immunoprecipitation (IP) mixes. The IP mixes used for the receptor binding analysis were as follows: For VEGFR-1 binding assays, the IP mix was phosphate buffered saline (PBS) containing 1.5% BSA, 0.06% Tween 20, 3 μg/ml heparin and 400 ng/ml VEGFR-1-Fc fusion protein (100 μl of this IP mix was added to 200 μl of sample supernatant); for VEGFR-2 binding assays, the IP mix was 82% conditioned cell supernatant from 293T cells transiently expressing VEGFR-2-Fc fusion protein in mixture with 18% of a PBS solution that contained 5% BSA, 0.2% Tween 20, and 10 μg/ml heparin (250 μl of IP mix was added to 200 μl of sample supernatant); and for VEGFR-3 binding assays, the IP mix was 82% conditioned cell supernatant from 293T cells transiently expressing VEGFR-3-Fc fusion protein, 18% of PBS containing 5% BSA, 0.2% Tween 20, and 10 μg/ml heparin (250 μl of IP mix was added to 200 μl of sample supernatant).

T2 sequence (P17948 27-338): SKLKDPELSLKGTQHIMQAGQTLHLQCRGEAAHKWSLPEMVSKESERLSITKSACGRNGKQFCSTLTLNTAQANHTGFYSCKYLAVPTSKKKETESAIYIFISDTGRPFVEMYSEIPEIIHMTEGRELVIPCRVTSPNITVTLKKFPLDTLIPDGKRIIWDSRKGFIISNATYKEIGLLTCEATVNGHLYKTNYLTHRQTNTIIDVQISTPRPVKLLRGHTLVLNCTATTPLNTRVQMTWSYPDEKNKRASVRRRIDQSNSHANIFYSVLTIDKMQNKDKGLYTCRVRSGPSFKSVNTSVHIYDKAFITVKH

binding result	Binder
no binding	B1
no binding	B2
no binding	B3
no binding	B4
no binding	B5
no binding	B6
no binding	B7
no binding	B8
no binding	B9
no binding	B10
no binding	B11
no binding	B12
no binding	B13
no binding	B14
no binding	B15
no binding	B16
no binding	B17
no binding	B18
no binding	B19
no binding	B20
no binding	B21
no binding	B22
no binding	B23
no binding	B24
no binding	B25
no binding	B26
no binding	B27
no binding	B28

Target: T3, VEGFR-2-Fc (UniProt P35968 20-322)
T3 construct: domain: first 3 Ig domains; conditioned supernatant of 293T cells; also called VEGFR-2-Fc fusion protein; not shown: Fc fragment of the pIg vector
Assay: receptor-Fc IP
Protocol: as §1

T3 sequence (P35968 20-322): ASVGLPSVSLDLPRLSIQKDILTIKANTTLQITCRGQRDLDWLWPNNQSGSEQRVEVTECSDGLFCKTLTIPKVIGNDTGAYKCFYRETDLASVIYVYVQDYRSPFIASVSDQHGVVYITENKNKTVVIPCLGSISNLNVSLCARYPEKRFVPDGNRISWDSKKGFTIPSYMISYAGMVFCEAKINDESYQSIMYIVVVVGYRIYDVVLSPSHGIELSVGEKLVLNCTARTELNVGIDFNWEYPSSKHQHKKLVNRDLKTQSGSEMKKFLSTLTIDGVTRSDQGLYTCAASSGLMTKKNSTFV

binding result	Binder
binds	B1
binds	B2
binds	B3
no binding	B4
no binding	B5
no binding	B6
binds	B7
no binding	B8
no binding	B9
binds	B10
no binding	B11
no binding	B12
no binding	B13
no binding	B14
binds	B15
no binding	B16
no binding	B17
no binding	B18
binds	B19
binds	B20
no binding	B21
no binding	B22
no binding	B23
binds	B24
binds	B25
binds	B26
binds	B27
no binding	B28

Target: T1, VEGFR-3-Fc
Assay: receptor-Fc IP
Protocol: as §1

binding result	Binder
binds	B1
no binding	B2
binds	B3
no binding	B4
no binding	B5
no binding	B6
no binding	B7
no binding	B8
binds	B9
binds	B10
no binding	B11
no binding	B12
no binding	B13
no binding	B14
no binding	B15
no binding	B16
no binding	B17
no binding	B18
binds	B19
binds	B20
no binding	B21
no binding	B22
no binding	B23
binds	B24
binds	B25
no binding	B26
no binding	B27
no binding	B28
